The source of these data is paper PMC1559926.

One assay has as its target Caveolin-1 135-178 (UniProt Q03135). Description: given as Ka.
For a further assay, the target named is Caveolin-1 61-101 (UniProt Q03135). Description: given as Ka.
Chain of Caveolin-1 61-101 (Q03135 61-101): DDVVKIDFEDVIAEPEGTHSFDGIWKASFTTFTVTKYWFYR

Chain of PrP, P04925 (P04925 23-230): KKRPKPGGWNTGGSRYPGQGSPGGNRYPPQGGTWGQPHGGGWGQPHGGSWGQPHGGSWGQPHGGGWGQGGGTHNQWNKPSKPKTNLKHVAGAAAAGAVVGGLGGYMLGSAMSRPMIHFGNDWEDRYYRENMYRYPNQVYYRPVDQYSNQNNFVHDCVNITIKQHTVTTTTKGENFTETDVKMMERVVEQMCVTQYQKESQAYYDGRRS
Chain of Caveolin-1 135-178 (Q03135 135-178): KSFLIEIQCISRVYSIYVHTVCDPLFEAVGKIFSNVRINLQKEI

As for PrP, P04925, the Kd with Caveolin-1 135-178 and with Caveolin-1 61-101 was 1.18 nM throughout.

As a reminder, the Kd is the concentration at which binding is half-saturated. Read a low Kd as a tighter complex.
